Reference: US20250262210A1 (TRUSTEES OF COLUMBIA UNIVERSITY IN THE CITY OF NEW YORK, published 2025)

Experiments:
[1] = molecular target: T1, RALGAPB (human, UniProt Q86X10 1-1494, limits assumed); assay: IP/MS, LZTR1 wild type-FLAG, U87
T1 sequence (looked up): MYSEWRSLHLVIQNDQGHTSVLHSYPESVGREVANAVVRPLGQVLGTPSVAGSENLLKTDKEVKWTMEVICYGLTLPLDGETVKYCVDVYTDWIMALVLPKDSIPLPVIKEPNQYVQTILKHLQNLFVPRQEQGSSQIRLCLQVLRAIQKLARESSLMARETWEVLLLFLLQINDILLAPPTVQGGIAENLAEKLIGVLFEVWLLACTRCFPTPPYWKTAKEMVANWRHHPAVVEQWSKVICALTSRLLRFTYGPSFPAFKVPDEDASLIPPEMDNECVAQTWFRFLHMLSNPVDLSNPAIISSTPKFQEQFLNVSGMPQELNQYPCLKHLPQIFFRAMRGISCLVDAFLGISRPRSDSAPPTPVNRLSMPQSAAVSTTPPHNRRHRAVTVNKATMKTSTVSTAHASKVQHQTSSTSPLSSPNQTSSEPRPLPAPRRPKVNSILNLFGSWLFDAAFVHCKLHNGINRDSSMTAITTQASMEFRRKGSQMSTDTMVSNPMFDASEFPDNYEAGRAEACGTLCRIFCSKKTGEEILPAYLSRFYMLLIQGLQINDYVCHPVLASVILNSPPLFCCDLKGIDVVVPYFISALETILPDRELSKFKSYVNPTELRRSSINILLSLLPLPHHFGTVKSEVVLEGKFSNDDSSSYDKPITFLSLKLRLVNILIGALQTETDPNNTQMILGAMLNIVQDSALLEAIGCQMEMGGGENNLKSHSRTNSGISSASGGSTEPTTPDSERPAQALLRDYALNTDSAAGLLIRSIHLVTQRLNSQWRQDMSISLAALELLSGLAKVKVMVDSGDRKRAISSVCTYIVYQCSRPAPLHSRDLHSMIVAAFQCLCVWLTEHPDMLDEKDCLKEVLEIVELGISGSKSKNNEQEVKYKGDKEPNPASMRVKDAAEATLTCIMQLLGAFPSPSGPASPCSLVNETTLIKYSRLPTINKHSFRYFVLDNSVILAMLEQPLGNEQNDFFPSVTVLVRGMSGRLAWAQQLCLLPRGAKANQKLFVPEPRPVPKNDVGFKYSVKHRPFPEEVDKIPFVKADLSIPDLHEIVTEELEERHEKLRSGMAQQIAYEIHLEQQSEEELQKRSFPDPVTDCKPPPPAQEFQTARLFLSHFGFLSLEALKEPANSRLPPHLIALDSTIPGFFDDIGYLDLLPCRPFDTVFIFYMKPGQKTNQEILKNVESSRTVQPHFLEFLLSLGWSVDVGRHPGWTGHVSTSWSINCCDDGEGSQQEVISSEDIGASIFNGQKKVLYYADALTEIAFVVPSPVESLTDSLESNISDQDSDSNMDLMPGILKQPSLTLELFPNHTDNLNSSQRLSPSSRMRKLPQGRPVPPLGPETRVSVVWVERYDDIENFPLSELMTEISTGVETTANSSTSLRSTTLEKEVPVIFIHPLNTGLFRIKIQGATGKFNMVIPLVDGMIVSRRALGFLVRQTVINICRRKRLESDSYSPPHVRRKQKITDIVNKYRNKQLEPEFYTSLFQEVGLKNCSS
How it was run: (§1)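 Extracted peptides in 3% acetonitrile/0.1% formic acid ran on a 50 cm C18 column into an Orbitrap Fusion, with MaxQuant identification and spectral counting.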

[2] = molecular target: T2, HECTD3 (human, UniProt Q5T447 2-861, limits assumed); assay: IP/MS, LZTR1 wild type-FLAG, U87
T2 sequence (looked up): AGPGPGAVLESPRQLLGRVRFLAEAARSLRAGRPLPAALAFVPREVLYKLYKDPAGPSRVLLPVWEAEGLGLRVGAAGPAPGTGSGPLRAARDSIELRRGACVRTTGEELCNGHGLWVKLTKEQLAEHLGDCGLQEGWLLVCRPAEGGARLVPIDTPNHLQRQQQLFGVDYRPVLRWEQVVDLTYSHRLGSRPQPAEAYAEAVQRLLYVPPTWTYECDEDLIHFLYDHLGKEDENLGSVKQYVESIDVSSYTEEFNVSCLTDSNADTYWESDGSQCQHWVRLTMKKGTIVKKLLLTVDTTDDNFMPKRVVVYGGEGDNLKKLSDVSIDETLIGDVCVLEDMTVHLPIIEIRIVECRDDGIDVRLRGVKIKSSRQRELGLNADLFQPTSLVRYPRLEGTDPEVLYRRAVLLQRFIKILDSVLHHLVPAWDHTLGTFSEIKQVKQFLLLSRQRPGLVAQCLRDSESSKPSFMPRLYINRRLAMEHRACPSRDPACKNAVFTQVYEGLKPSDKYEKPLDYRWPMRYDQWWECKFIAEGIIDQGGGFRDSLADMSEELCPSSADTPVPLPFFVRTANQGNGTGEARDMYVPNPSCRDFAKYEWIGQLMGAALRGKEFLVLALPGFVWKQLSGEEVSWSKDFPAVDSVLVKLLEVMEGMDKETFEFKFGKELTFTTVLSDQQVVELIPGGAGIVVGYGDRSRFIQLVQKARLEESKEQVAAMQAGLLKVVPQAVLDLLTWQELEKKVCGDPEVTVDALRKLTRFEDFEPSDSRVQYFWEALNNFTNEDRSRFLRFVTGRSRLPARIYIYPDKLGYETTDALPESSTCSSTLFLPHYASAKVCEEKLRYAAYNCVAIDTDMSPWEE
How it was run: as §1

binding result [1]: binds
binding result [2]: binds
B1: LZTR1-FLAG (other, human, UniProt Q8N653 1-840, looked up)
chain: MAGPGSTGGQIGAAALAGGARSKVAPSVDFDHSCSDSVEYLTLNFGPFETVHRWRRLPPCDEFVGARRSKHTVVAYKDAIYVFGGDNGKTMLNDLLRFDVKDCSWCRAFTTGTPPAPRYHHSAVVYGSSMFVFGGYTGDIYSNSNLKNKNDLFEYKFATGQWTEWKIEGRLPVARSAHGATVYSDKLWIFAGYDGNARLNDMWTIGLQDRELTCWEEVAQSGEIPPSCCNFPVAVCRDKMFVFSGQSGAKITNNLFQFEFKDKTWTRIPTEHLLRGSPPPPQRRYGHTMVAFDRHLYVFGGAADNTLPNELHCYDVDFQTWEVVQPSSDSEVGGAEVPERACASEEVPTLTYEERVGFKKSRDVFGLDFGTTSAKQPTQPASELPSGRLFHAAAVISDAMYIFGGTVDNNIRSGEMYRFQFSCYPKCTLHEDYGRLWESRQFCDVEFVLGEKEECVQGHVAIVTARSRWLRRKITQARERLAQKLEQEAAPVPREAPGVAAGGARPPLLHVAIREAEARPFEVLMQFLYTDKIKYPRKGHVEDVLLIMDVYKLALSFQLCRLEQLCRQYIEASVDLQNVLVVCESAARLQLSQLKEHCLNFVVKESHFNQVIMMKEFERLSSPLIVEIVRRKQQPPPRTPLDQPVDIGTSLIQDMKAYLEGAGAEFCDITLLLDGHPRPAHKAILAARSSYFEAMFRSFMPEDGQVNISIGEMVPSRQAFESMLRYIYYGEVNMPPEDSLYLFAAPYYYGFYNNRLQAYCKQNLEMNVTVQNVLQILEAADKTQALDMKRHCLHIIVHQFTKVSKLPTLRSLSQQLLLDIIDSLASHISDKQCAELGADI
notes: Expressed in HEK 293T, HeLa or U87 cells; used as cell lysate; also called LZTR1 wild type-FLAG; LZTR1 WT; not shown: FLAG tag at the C-terminus
